Legend:
[1] = molecular target: T1, Arabidopsis thaliana UFD1B (Arabidopsis thaliana, UniProt Q9SJV0 1-340); assay: MST; pH 6.5; AMPPNP
T1 chain: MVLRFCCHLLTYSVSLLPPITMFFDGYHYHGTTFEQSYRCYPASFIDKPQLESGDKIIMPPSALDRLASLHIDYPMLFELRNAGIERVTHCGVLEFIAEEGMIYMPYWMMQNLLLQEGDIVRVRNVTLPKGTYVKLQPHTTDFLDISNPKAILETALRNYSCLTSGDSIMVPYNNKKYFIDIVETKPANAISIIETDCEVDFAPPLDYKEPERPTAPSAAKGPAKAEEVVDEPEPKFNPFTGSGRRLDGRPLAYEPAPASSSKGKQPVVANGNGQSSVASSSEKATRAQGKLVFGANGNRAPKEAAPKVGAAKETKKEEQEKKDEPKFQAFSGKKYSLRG

[2] = molecular target: T1, Arabidopsis thaliana UFD1B; assay: MST; pH 7.5; AMPPNP
[3] = molecular target: T1, Arabidopsis thaliana UFD1B; assay: ITC; AMPPNP; AtCDC48A saturated with AtNPL4
[4] = molecular target: T1, Arabidopsis thaliana UFD1B; assay: MST; pH 6.5
[5] = molecular target: T1, Arabidopsis thaliana UFD1B; assay: MST; pH 7.5
AtNPL4B F105A = molecular target: T2, AtNPL4B F105A (Arabidopsis thaliana, UniProt Q9LYC2 1-413, F105A); assay: ITC; AMPPNP
T2 sequence: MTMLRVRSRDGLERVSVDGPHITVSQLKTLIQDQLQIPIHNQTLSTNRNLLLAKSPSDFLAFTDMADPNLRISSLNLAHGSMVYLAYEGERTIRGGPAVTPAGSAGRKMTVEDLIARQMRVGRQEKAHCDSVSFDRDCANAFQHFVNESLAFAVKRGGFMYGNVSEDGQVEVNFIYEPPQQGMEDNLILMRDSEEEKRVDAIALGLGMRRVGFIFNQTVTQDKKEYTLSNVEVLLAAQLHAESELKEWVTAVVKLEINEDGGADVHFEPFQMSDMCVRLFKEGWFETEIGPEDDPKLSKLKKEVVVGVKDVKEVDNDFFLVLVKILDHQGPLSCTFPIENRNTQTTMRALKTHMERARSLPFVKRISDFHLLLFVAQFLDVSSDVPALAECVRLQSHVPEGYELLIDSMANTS

AtNPL4B UBXL domain = molecular target: T3, AtNPL4B UBXL domain (Arabidopsis thaliana, UniProt Q9LYC2 1-89); assay: ITC; AMPPNP
T3 chain: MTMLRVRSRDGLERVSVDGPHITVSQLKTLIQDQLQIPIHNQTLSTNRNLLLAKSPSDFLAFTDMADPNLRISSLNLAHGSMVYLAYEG

B1: AtCDC48A saturated with AtNPL4 (complex)
chain 1: MSTPAESSDSKSKKDFSTAILERKKSPNRLVVDEAINDDNSVVSLHPATMEKLQLFRGDTILIKGKKRKDTVCIALADETCEEPKIRMNKVVRSNLRVRLGDVISVHQCPDVKYGKRVHILPVDDTVEGVTGNLFDAYLKPYFLEAYRPVRKGDLFLVRGGMRSVEFKVIETDPAEYCVVAPDTEIFCEGEPVKREDEERLDDVGYDDVGGVRKQMAQIRELVELPLRHPQLFKSIGVKPPKGILLYGPPGSGKTLIARAVANETGAFFFCINGPEIMSKLAGESESNLRKAFEEAEKNAPSIIFIDEIDSIAPKREKTNGEVERRIVSQLLTLMDGLKSRAHVIVMGATNRPNSIDPALRRFGRFDREIDIGVPDEIGRLEVLRIHTKNMKLAEDVDLERISKDTHGYVGADLAALCTEAALQCIREKMDVIDLEDDSIDAEILNSMAVTNEHFHTALGNSNPSALRETVVEVPNVSWNDIGGLENVKRELQETVQYPVEHPEKFEKFGMSPSKGVLFYGPPGCGKTLLAKAIANECQANFISVKGPELLTMWFGESEANVREIFDKARQSAPCVLFFDELDSIATQRGGGSGGDGGGAADRVLNQLLTEMDGMNAKKTVFIIGATNRPDIIDSALLRPGRLDQLIYIPLPDEDSRLNIFKAALRKSPIAKDVDIGALAKYTQGFSGADITEICQRACKYAIRENIEKDIEKEKRRSENPEAMEEDGVDEVSEIKAAHFEESMKYARRSVSDADIRKYQAFAQTLQQSRGFGSEFRFENSAGSGATTGVADPFATSAAAAGDDDDLYN
chain 2: MMMLRIRSRDGLERVTAEGAHITVSQLKTLIADQLQIPLHKQTLSTNRDLLLAKTPADLLAFTDLTDPNLPLSSLNLGHGSMLYLAYDGERSIPGAPPVTPAGSFGRKMTVDDLIARQMRVTRQETSHCDSVSFDRDAANAFQHYVNESLAFAVKRGGFMYGTVTEEGQVEVDFIYEPPQQGTEANLILMRDADEEKRVDAIAMGLGMRRVGFIFNQTVVQDKTEYTLSNAEVLQAAELHAESELKEWVTAVVKLEVNEDGGADVHFEAFQMSDMCIRLFKEEWFETEIMPDDDPKLSKMKKEVVVGVKDLKEVDNDFFLVLVRILDHQGPLSSTFPIENRSSRATMRALKTHLDRAKSLPLVKKMSDFHLLLFVAQFLDVSSDVPALAECVRLQSPVPEGYALLIESMANTC
modifications: Alexa-488 dye label in the MST experiments only
Kd [1]: 2.9 µM
Kd [2]: 4.6 µM
Kd [3]: 3.8 µM

B2: Arabidopsis thaliana NPL4 (natural protein)
chain: MMMLRIRSRDGLERVTAEGAHITVSQLKTLIADQLQIPLHKQTLSTNRDLLLAKTPADLLAFTDLTDPNLPLSSLNLGHGSMLYLAYDGERSIPGAPPVTPAGSFGRKMTVDDLIARQMRVTRQETSHCDSVSFDRDAANAFQHYVNESLAFAVKRGGFMYGTVTEEGQVEVDFIYEPPQQGTEANLILMRDADEEKRVDAIAMGLGMRRVGFIFNQTVVQDKTEYTLSNAEVLQAAELHAESELKEWVTAVVKLEVNEDGGADVHFEAFQMSDMCIRLFKEEWFETEIMPDDDPKLSKMKKEVVVGVKDLKEVDNDFFLVLVRILDHQGPLSSTFPIENRSSRATMRALKTHLDRAKSLPLVKKMSDFHLLLFVAQFLDVSSDVPALAECVRLQSPVPEGYALLIESMANTC
modifications: Alexa-488 dye label in the MST experiments only
Kd [4]: 75.4 µM
Kd [5]: 256 µM

B3: Arabidopsis thaliana CDC48A (enzyme)
chain: MSTPAESSDSKSKKDFSTAILERKKSPNRLVVDEAINDDNSVVSLHPATMEKLQLFRGDTILIKGKKRKDTVCIALADETCEEPKIRMNKVVRSNLRVRLGDVISVHQCPDVKYGKRVHILPVDDTVEGVTGNLFDAYLKPYFLEAYRPVRKGDLFLVRGGMRSVEFKVIETDPAEYCVVAPDTEIFCEGEPVKREDEERLDDVGYDDVGGVRKQMAQIRELVELPLRHPQLFKSIGVKPPKGILLYGPPGSGKTLIARAVANETGAFFFCINGPEIMSKLAGESESNLRKAFEEAEKNAPSIIFIDEIDSIAPKREKTNGEVERRIVSQLLTLMDGLKSRAHVIVMGATNRPNSIDPALRRFGRFDREIDIGVPDEIGRLEVLRIHTKNMKLAEDVDLERISKDTHGYVGADLAALCTEAALQCIREKMDVIDLEDDSIDAEILNSMAVTNEHFHTALGNSNPSALRETVVEVPNVSWNDIGGLENVKRELQETVQYPVEHPEKFEKFGMSPSKGVLFYGPPGCGKTLLAKAIANECQANFISVKGPELLTMWFGESEANVREIFDKARQSAPCVLFFDELDSIATQRGGGSGGDGGGAADRVLNQLLTEMDGMNAKKTVFIIGATNRPDIIDSALLRPGRLDQLIYIPLPDEDSRLNIFKAALRKSPIAKDVDIGALAKYTQGFSGADITEICQRACKYAIRENIEKDIEKEKRRSENPEAMEEDGVDEVSEIKAAHFEESMKYARRSVSDADIRKYQAFAQTLQQSRGFGSEFRFENSAGSGATTGVADPFATSAAAAGDDDDLYN
Kd (AtNPL4B F105A): 4.6 µM
Kd (AtNPL4B UBXL domain): 3.2 µM
